Reference: publication PMC10576089, “Integrative solution structure of PTBP1-IRES complex reveals strong compaction and ordering with residual conformational flexibility”

Experiments:
PTBP1 RRM1 = PTBP1 RRM1 (UniProt P26599-1 41-163); assay: NMR (intermolecular NOEs); binding register confirmed; NMR/SANS: 10 mM NaPO4 pH 6.5, 20 mM NaCl, 1-2 mM DTT; protein NMR at 313/323 K, imino spectra 278-293 K; DEER 1:1 d8-glycerol at 50 K; SAS 23 C; details: protein: recombinant; hairpin
PTBP1 (hnRNP I) = PTBP1 (hnRNP I) (UniProt P26599-1 1-531, C250S;C251S); assay: NMR; SAXS/SANS; CLIR-MS/MS; integrative structure; ensemble in Zenodo 10.5281/zenodo.7798970; NMR/SANS: 10 mM NaPO4 pH 6.5, 20 mM NaCl, 1-2 mM DTT; protein NMR at 313/323 K, imino spectra 278-293 K; DEER 1:1 d8-glycerol at 50 K; SAS 23 C; details: protein: recombinant; stem-loops D, E and F with single-stranded linkers
Sequence of PTBP1 (hnRNP I) (P26599 other isoform, or with tags, fused parts or gaps C250S;C251S): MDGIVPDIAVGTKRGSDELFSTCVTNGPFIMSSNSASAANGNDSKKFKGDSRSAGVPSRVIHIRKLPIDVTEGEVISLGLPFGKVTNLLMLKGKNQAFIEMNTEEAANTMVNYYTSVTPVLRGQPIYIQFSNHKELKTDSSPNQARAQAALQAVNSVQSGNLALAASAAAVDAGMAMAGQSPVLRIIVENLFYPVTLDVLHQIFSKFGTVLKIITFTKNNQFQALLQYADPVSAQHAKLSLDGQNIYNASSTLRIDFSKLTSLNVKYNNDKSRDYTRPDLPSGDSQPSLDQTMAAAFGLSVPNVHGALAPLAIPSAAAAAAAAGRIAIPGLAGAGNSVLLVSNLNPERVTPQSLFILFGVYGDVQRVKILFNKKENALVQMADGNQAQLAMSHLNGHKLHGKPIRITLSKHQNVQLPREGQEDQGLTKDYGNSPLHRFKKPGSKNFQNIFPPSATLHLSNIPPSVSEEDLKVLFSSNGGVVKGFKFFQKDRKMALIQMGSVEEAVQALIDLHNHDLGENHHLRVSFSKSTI

Sequence of PTBP1 RRM1 (P26599 41-163): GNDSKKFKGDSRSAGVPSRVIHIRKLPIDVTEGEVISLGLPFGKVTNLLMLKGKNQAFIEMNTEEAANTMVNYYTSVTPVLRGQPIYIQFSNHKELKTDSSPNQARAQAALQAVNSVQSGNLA

Binder: GGAGCGUUUGUCUAUAUGUUCC (structured_RNA) [SLE]
- binding result (PTBP1 RRM1): binds

B1: EMCV-IRES-DtoF (structured_RNA)
RNA: UACUGGCCGAAGCCGCUUGGAAUAAGGCCGGUGUGCGUUUGUCUAUAUGUUAUUUUCCACCAUAUUGCCGUCUUUUGGCAAUGUG
- binding result (PTBP1 (hnRNP I)): binds
